In one data set the target is T1, PiUDH (Pyrobaculum islandicum, UniProt A1RUM9).
T1 construct: gene Pisl_1505; N-terminal His6 tag, codon-optimised gene, pET15b, whole E. coli BL21(DE3) cells
Kind of data set: whole-cell conversion, PAMN-HPLC and ESI-MS of UDP-GlcA. To be noted: BL21-PiUDH whole cells, NAD+ varied 0-1.2 mM, 2.3 mM UDP-Glc, sodium phosphate. It counts as cell-based.

Substrate in the data set “purified protein”: O=P(O)(O)O[C@H]1O[C@H](CO)[C@@H](O)[C@H](O)[C@H]1O
Briefly: purified protein. It counts as biochemical, Sulfurisphaera tokodaii. To be noted: 3 mM UTP, 20 mM MgCl2, 50 mM Tris-HCl pH 7.5, 80 °C (also measured at 37 °C).

T1 sequence (A1RUM9 entry or part of it): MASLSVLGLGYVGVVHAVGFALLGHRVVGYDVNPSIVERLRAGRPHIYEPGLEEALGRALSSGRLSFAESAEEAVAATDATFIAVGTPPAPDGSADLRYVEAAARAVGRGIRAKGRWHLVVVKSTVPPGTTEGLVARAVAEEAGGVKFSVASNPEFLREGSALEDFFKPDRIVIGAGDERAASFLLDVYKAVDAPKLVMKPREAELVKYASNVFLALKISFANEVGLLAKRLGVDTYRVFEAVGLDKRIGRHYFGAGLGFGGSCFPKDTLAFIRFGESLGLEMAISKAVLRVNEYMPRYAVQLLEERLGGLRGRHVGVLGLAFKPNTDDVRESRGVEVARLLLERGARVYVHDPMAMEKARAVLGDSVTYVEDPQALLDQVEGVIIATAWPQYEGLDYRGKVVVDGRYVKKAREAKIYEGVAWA

Regarding `NC(=O)c1ccc[n+]([C@@H]2O[C@H](COP(=O)(O)OP(=O)(O)OC[C@H]3O[C@@H](n4cnc5c(N)ncnc54)[C@H](O)[C@@H]3O)[C@@H](O)[C@H]2O)c1` [NAD^+], the “whole-cell conversion, PAMN-HPLC and ESI-MS of UDP-GlcA” value at PiUDH is listed as “The synthetic efficiency showed a positive correlation with the concentration of NAD^+”.

B1: StUSP (Sulfurisphaera tokodaii str. 7) (protein)
chain: MKAFILAAGSGERLEPITHTRPKAFVPILSKPLIEYQIEYLRKCGIRDITVIVSSKNKEYFEKKLKEISIVTQKDDIKGTGAAILSAKFNDEALIIYGDLFFSNEKEICNIITLKENAIIGVKVSNPKDYGVLVLDNQNNLSKIIEKPEIPPSNLINAGIYKLNSDIFTYLDKISISERGELELTDAINLMAKDHRVKVIEYEGYWMDIGKPWNIIDVNKWALDNLVFSQNLGNVEDNVKIKGKVIIEEDAEIKSGTYIEGPVYIGKGSEIGPNSYLRPYTILVEKNKIGASVEVKESVIMEGSKIPHLSYVGDSVIAEDVNFGAGTLIANLRFDEKEVKVNVKGKRISSGRRKLGAFIGGHVRTGINVTILPGVKIGAYARIYPGAVVNRDVGYGEFFKV
Turning to B1, in “purified protein”, the Km is 1474 ± 225 µM and the Vmax was determined as 14500 ± 227 µmol/min/mg.

(Values after PMC6604206, “Cascade synthesis of uridine-5′-diphosphate glucuronic acid by coupling multiple whole cells expressing hyperthermophilic enzymes” (Microbial Cell Factories, 2019).)
